The values that follow come from EP2045266A1 (INSERM (Institut National de la Santé et de la Recherche …, dated 2009).

This assay addresses T1, LexA DNA-binding domain fusion of 4 kDa pro-fragment of human cath-D (human, UniProt P0A7C2 1-202; P07339 21-64, limits assumed).
T1 construct: also called 4 kDa pro-fragment (yeast two-hybrid bait)
T1 sequence (looked up): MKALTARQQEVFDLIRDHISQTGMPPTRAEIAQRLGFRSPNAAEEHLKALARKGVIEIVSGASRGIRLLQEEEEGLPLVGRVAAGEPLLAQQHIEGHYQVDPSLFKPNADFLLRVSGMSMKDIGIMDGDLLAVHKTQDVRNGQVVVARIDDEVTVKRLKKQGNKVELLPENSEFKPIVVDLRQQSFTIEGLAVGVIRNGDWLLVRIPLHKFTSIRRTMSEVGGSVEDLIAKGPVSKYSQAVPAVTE
In words: yeast two-hybrid.

B1: B42 activation domain fusion of LRP1β (307-479) (yeast two-hybrid clone, pYESTrp2-LRP1β (307-479)) (other, not shown: large carriers)
chain: PSGMPTCRCPTGFTGPKCTQQVCAGYCANNSTCTVNQGNQPQCRCLPGFLGDRCQYRQCSGYCENFGTCQMAADGSRQCRCTAYFEGSRCEVNKCSRCLEGACVVNKQSGDVTCNCTDGRVAPSCLTCVGHCSNGGSCTMNSKMMPECQCPPHMTGPRCEEHVFSQQQPGHIA
notes: also called the clone isolated in the screen
Take B1: the binding result was “no binding”.
